# Measurements reported in US20240287177A1 (Merck KGaA, published 2024).
# Substitutions are numbered along the chain they refer to. Read-outs that look alike come from different tables or passages of the source.
# T1: recombinant human NKp30 extracellular domain, his-tagged (human, UniProt O14931 19-135)
# T1 construct: BLI used human NKp30 bought from Abcam (his-tagged ECD); also called rh NKp30 ECD; human NKp30 (Abcam); not shown: his tag
# T1 sequence: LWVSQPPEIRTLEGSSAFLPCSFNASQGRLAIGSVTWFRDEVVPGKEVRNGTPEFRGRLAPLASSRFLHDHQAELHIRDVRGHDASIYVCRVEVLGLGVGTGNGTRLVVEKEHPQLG
# B1: VHH2 SEEDbody eff- (bispecific antibody, part only; not given: silenced SEED Fc and cetuximab Fab, V domains shown, not shown: another chain or arm of the molecule; a dimerising Fc or GST; small tags and cut ends)
# VHH: DVQLQESGGGLVQAGGSLRLSCAVSGQTWTNYHIGWFRQAPGKARESVASIEWGGRGTYATDSVKGRFTISRDNAKNTVYLQMNSLKPEDTAVYYCAAQSSSRSPLESNYDYWGQGTQVTVSS
# B2: VHH2.12 (humanized) (VHH)
# VHH: EVQLVESGGGVVQPGGSLRLSCAASGQTWTNYHIGWFRQAPGKGLEWVASIEWGGRGTYATDSVKGRFTISRDNAKNTVYLQMNSLRAEDTAVYYCAAQSSSRSPLESNYDYWGQGTLVTVSS
# notes: expressed and measured by BLI 'as described in Experiment 1' (there: bispecific SEEDbody on anti-human Fc sensors)
# B3: VHH2.16 (humanized) (VHH)
# VHH: B2 VHH with V79L
# notes: as for B2
# B4: VHH2.15 (humanized) (VHH)
# VHH: B2 VHH with W47S, V79L
# notes: as for B2
# B5: VHH1 SEEDbody eff- (bispecific antibody, part only; not given: silenced SEED Fc and cetuximab Fab, V domains shown, not shown: another chain or arm of the molecule; a dimerising Fc or GST; small tags and cut ends)
# VHH: DVQLQESGGGLVQPGGSLRLSCATSGFTLDDYTIGWVRQAPGKEHEGVSCFSPSDGTTYYADSVKGRFTFSRDNAKNTVYLQMNSLKPEDTAVYYCAASFADGSSWCYDYWGQGTQVTVSS
# B6: VHH1 (parental, as tested in Example 8) (VHH)
# VHH: B5 VHH
# notes: as for B2
# B7: VHH1.1 (humanized) (VHH)
# VHH: B5 VHH with D1E, Q5V, L11V, K87R, P88A, Q116L
# notes: as for B2
# B8: VHH1.8 (humanized) (VHH)
# VHH: B5 VHH with D1E, Q5V, L11V, E44G, H45L, F70I, V79L, K87R, P88A, Q116L
# notes: as for B2
# B9: VHH1.7 (humanized) (VHH)
# VHH: B5 VHH with D1E, Q5V, L11V, T24A, E44G, H45L, V79L, K87R, P88A, Q116L
# notes: as for B2
# B10: VHH1.3 (humanized) (VHH)
# VHH: B5 VHH with D1E, Q5V, L11V, T24A, F70I, V79L, K87R, P88A, Q116L
# notes: as for B2
# B11: VHH1.9 (humanized) (VHH)
# VHH: EVQLVESGGGVVQPGGSLRLSCAASGFTLDDYTIGWVRQAPGKGLEGVSCFSPSDGTTYYADSVKGRFTISRDNAKNTLYLQMNSLRAEDTAVYYCAASFADGSSWCYDYWGQGTLVTVSS
# notes: as for B2
# B12: VHH1.6 (humanized) (VHH)
# VHH: B11 VHH with A24T, I70F
# notes: as for B2
# B13: VHH1.4 (humanized) (VHH)
# VHH: B11 VHH with A24T, I70F, L79V
# notes: as for B2
# B14: VHH1.5 (humanized) (VHH)
# VHH: B11 VHH with L79V
# notes: as for B2
# B15: VHH1.2 (humanized) (VHH)
# VHH: B11 VHH with A24T, G44E, L45H, I70F
# notes: as for B2
# Assays:
# [1] = target: NKp30 on human NK cells (human) (UniProt O14931); test: cell-based or functional assay
# [2] = target: FcγRIIIa on human NK cells (human) (UniProt P08637); test: cell-based or functional assay
# [3] = target: recombinant human NKp30 extracellular domain, his-tagged (human) (UniProt O14931); test: BLI, SEEDbody on anti-human Fc sensors, soluble NKp30, 1:1 fit
# [4] = target: T1, recombinant human NKp30 extracellular …; test: BLI as in Example 1
# [5] = target: T1, recombinant human NKp30 extracellular …; test: BLI as in Example 1, maximum binding capacity
# [6] = target: T1, recombinant human NKp30 extracellular …; test: BLI as in Example 1; remark: listed apart in the source
# [7] = target: T1, recombinant human NKp30 extracellular …; test: BLI as in Example 1, maximum binding capacity; remark: listed apart in the source
# FcγRIIIa on human NK cells (human), sequence (P08637 17-254): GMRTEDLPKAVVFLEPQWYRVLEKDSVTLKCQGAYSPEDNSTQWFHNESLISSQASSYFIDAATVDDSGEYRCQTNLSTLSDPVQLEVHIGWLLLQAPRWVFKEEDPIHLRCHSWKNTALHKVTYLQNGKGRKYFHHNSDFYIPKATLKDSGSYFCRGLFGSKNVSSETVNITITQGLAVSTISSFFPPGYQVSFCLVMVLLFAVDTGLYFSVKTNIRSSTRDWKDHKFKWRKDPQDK
binder,measurement,setting,value
B1,"EC50 (nM), MNC based killing of A431 cells, E:T 80:1",[1],0.0132 nM
same,"EC50, lysis of A431 cells by isolated NK cells, E:T 10:1",[1],34.4 pM
same,"Max. IFNγ release (pg/ml), NK cells with A431 cells",[1],580 pg/mL
same,"Max. Killing (% Lysis), MNC based killing of A431 cells, E:T 80:1",[1],51 % Lysis
same,"Max. TNFα release (pg/ml), NK cells with A431 cells",[1],118 pg/mL
same,"EC50, lysis of A431 cells by isolated NK cells, E:T 10:1",[2],3.9 pM
same,"fold increase of killing potency, eff+ against eff-",[2],8.8 fold
same,Kd,[3],3270 pM
same,koff,[3],0.000646 s⁻¹
same,kon,[3],198000 M⁻¹ s⁻¹
B2,Kd,[4],4240 pM
same,Emax (nm),[5],0.14 nm
B3,Kd,[4],4710 pM
same,Emax (nm),[5],0.11 nm
B4,Kd,[4],12300 pM
same,Emax (nm),[5],0.07 nm
B5,"EC50 (nM), MNC based killing of A431 cells, E:T 80:1",[1],0.00171 nM
same,"EC50, lysis of A431 cells by isolated NK cells, E:T 10:1",[1],2.2 pM
same,"Max. IFNγ release (pg/ml), NK cells with A431 cells",[1],753 pg/mL
same,"Max. Killing (% Lysis), MNC based killing of A431 cells, E:T 80:1",[1],53 % Lysis
same,"Max. TNFα release (pg/ml), NK cells with A431 cells",[1],104 pg/mL
same,"EC50, lysis of A431 cells by isolated NK cells, E:T 10:1",[2],3.2 pM
same,Kd,[3],270 pM
same,koff,[3],0.000222 s⁻¹
same,kon,[3],819000 M⁻¹ s⁻¹
B6,Kd,[6],248 pM
same,Emax (nm),[7],0.13 nm
B7,Kd,[6],275 pM
same,Emax (nm),[7],0.13 nm
B8,Kd,[6],1130 pM
same,Emax (nm),[7],0.1 nm
B9,Kd,[6],533 pM
same,Emax (nm),[7],0.09 nm
B10,Kd,[6],1070 pM
same,Emax (nm),[7],0.12 nm
B11,Kd,[6],1060 pM
same,Emax (nm),[7],0.1 nm
B12,Kd,[6],797 pM
same,Emax (nm),[7],0.14 nm
B13,Kd,[6],547 pM
same,Emax (nm),[7],0.12 nm
B14,Kd,[6],888 pM
same,Emax (nm),[7],0.1 nm
B15,Kd,[6],293 pM
same,Emax (nm),[7],0.12 nm
